The source of these data is patent US20210283233A1.

The series deals with T1, rPfSEP-1A (recombinant polypeptide encoded by nt 2,431-3,249 of PF3D7_1021800, aa 810-1083 of PfSEP-1).
T1 chain: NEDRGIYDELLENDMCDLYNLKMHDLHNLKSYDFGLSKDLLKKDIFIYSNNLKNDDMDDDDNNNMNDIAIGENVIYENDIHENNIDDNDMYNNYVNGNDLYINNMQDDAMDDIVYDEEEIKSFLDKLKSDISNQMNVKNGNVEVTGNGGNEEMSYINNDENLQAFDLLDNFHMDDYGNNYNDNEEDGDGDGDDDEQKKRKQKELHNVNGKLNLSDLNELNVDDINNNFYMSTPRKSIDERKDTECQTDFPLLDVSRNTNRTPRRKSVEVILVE

B1: rPfCDPK-5 (recombinant Plasmodium falciparum calcium-dependent protein kinase 5, PF3D7_1337800) (protein)
chain: MKETEVEDMDTNRKDGKIKKKEKIVNMKNEEVKSTTKSTLADSDEDYSIITLCTKCLSKKLEDNKNRIILDSKAFKDNRLKGRCSVSSNEDPLDNKLNLSPYFDRSQIIQEIILMNNDELSDVYEIDRYKLGKGSYGNVVKAVSKRTGQQRAIKIIEKKKIHNIERLKREILIMKQMDHPNIIKLYEVYEDNEKLYLVLELCDGGELFDKIVKYGSFSEYEAYKIMKQIFSALYYCHSKNIMHRDLKPENILYVDNTEDSPIQIIDWGFASKCMNNHNLKSVVGTPYYIAPEILRGKYDKRCDIWSSGVIMYILLCGYPPFNGKNNDEILKKVEKGEFVFDSNYWARVSDDAKDLICQCLNYNYKERIDVEQVLKHRWFKKFKSNNLIINKTLNKTLIEKFKEFHKLCKIKKLAVTCIAYQLNEKDIGKLKKTFEAFDHNGDGVLTISEIFQCLKVNDNEFDRELYFLLKQLDTDGNGLIDYTEFLAACLDHSIFQQDVICRNAFNVFDLDGDGVITKDELFKILSFSAVQVSFSKEIIENLIKEVDSNNDGFIDYDEFYKMMTGVKE
Take B1: the phosphorylation result is “rPfCDPK-5 was found to phosphorylate rPfSEP-1A”.
